Publication PMC3441751, “Structure and Assembly of a Trans-Periplasmic Channel for Type IV Pili in Neisseria meningitidis” (PLoS Pathogens, 2012)

Target: the molecule itself
Assay: cryo-EM structure; single particle averaging of unstained frozen-hydrated PilQ complexes in a dodecyl maltoside-containing buffer at 1 mg/ml; 25,303 particles; C12 symmetry

B1: PilQ dodecamer (complete N. meningitidis PilQ oligomer) (natural protein)
chain: GNITDIKVSSLPNKQKIVKVSFDKEIVNPTGFVTSSPARIALDFEQTGISMDQQVLEYADPLLSKISAAQNSSRARLVLNLNKPGQYNTEVRGNKVWIFINESDDTVSAPARPAVKAAPAAPAKQQAAAPSTKSAVSVSEPFTPAKQQAAAPFTESVVSVSAPFSPAKQQAAASAKQQAAAPAKQQAAAPAKQQAAAPAKQTNIDFRKDGKNAGIIELAALGFAGQPDISQQHDHIIVTLKNHTLPTTLQRSLDVADFKTPVQKVTLKRLNNDTQLIITTAGNWELVNKSAAPGYFTFQVLPKKQNLESGGVNNAPKTFTGRKISLDFQDVEIRTILQILAKESGMNIVASDSVNGKMTLSLKDVPWDQALDLVMQARNLDMRQQGNIVNIAPRDELLAKDKALLQAEKDIADLGALYSQNFQLKYKNVEEFRSILRLDNADTTGNRNTLISGRGSVLIDPATNTLIVTDTRSVIEKFRKLIDELDVPAQQVMIEARIVEAADGFSRDLGVKFGATGKKKLKNDTSAFGWGVNSGFGGDDKWGAETKINLPITAAANSISLVRAISSGALNLELSASESLSKTKTLANPRVLTQNRKEAKIESGYEIPFTVTSIANGGSSTNTELKKAVLGLTVTPNITPDGQIIMTVKINKDSPAQCASGNQTILCISTKNLNTQAMVENGGTLIVGGIYEEDNGNTLTKVPLLGDIPVIGNLFKTRGKKTDRRELLIFITPRIMGTAGNSLRY
notes: PilQ secretin, Neisseria meningitidis; The source of the sample is in Text S1; also called entire PilQ dodecamer; intact PilQ oligomer; source: PilQ complexes resuspended in a dodecyl maltoside-containing buffer at 1 mg/ml; copies: 12
- stoichiometry N: 12
